Laboratory results reported in the nanobody polyreactivity screen of Harvey et al. (2022).

assay: yeast display, Sf9 membrane polyspecificity reagent, FACS + sequencing; frameworks hold sequencing errors
In short: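 Synthetic nanobody libraries on Saccharomyces cerevisiae BJ5465 were galactose-induced for 36–48 hours, stained 1 hour at 4 °C with 10% biotinylated, detergent-solubilized Sf9 membrane reagent and enriched on streptavidin microbeads. FACS then separated cells into low and high (top ~1%) gates by anti-HA (expression) and streptavidin (reagent binding) fluorescence. Genes were colony-PCR amplified, MiSeq 2 × 250 sequenced and CDR-length filtered. A clone's polyreactivity label is that of its gate of origin.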

| Sequence | polyreactivity (PSR sort gate) |
| --- | --- |
| QVQLVESGGGLVQAGGSLRLSSAASGSTFAFNAMGWYRHAHGKEREFVARITWSDGSTYYADSVKGRFTISRDNAKNTVYLQMNCLKPEDTAVYYCARDPTEQAIARWTYDYWGQGTQVTVSS | low polyreactivity |
| QVQLVESGGGLVQAGGSLRLSCAASGFIFSWYAMGWYRQAPGKERELVAAISASGTSTYYADSVKGRFTISRDNAKNTVYLQMNSLKPEDTAVYYCAAEFVTEYLYGFVYEYDSWGQGTQVTVSS | low polyreactivity |
| QVQLVESGGGLVQAGGSLRLSCAASGSTFYTNAMGWYRQAPGKERELVAVITYRGGSTYYADSVKGRFTISRDNAKNTVYLQMNSLKPEDTAVYYCNARGTVPWYGYDYWGQGTQVTVSS | high polyreactivity |
| QVQLVESGGGLVQAGGSLRLSCAASGFILYSYAMGWYRQAPGKERELVAAINSTGSTYYADSVKGRFTISRDNAKNTVYLQMNSLKPEDTAVYYCATDPWYQTDHSYDTPYYYWGQGTQVTVSS | low polyreactivity |
| QVQLVESGGGLVQAGGSLRLSCAASGFTFSEYAMGWYRQAPGKERELVAAISRGTSTYYADSVKGRFTISRDNAKNTVYLQMNSVKPEDTAVYYCAAAPSYYPARHGYWGQVTQVTVSS | low polyreactivity |
| QVQLVESGGGLVQAGGSLRLSCAASGGTFHKYDMGWYRQAPGKERELVAYADSVKGRFTISRDNAKNTVYLQMNSLKPEDTAVYYCNADWQSYGYLCHSSLYYYWGQGTQVTVSS | low polyreactivity |
| QVQLVESGGGLVQAGGSLRLSCAASGIIFSTYAMGWYRHAPWKERELVAAITRGDSTNYADSVKGRFTISRDNAKNTVYLQMNSLKPEDTAVYYCAVDKRYGRVVGRDYDYWGQGTQVTVSS | high polyreactivity |
| QVQLVESGGGLVQAGGSLRLSCAASGFIFYGYAMGWSRQAPGKERELVAAIRYSGTSTYADSVKGRFTISRDNAKNTVYLQMNSLKPEDTAVFYCAKKYLYYGVPSYKYWGQGTQVTVSS | high polyreactivity |
| QVQLVESGGGLVQAGGSLRLSCAASGIIFGYYAMGWYRQAPGKERELVAAISWSGVSTYYADSVKGRFTISRDNAKNTVYLQMHSLKPEDTAVYYCAVGYVLTGVFQARFDYWGQGTQVTVSS | high polyreactivity |
| QVQLVESGGGLVQAGGSLRLSCAASGSIFYGYAMGWYRQAPGKERELVAAISFSGGSTHYADSVKGRFTISRDNAKNTVYLQMNSLKPEDTAVYYCATDSGTPGDDEYWGQGTQVTVSS | low polyreactivity |
| QVQLVESGGGLVQAGGSLRLSCASSGRTFPAYVMGWYREAPGKERDLVAAISRGGSTYYADSVKGRFTISRDNAKNTVYFQMNSLKPEDTAVFYCAARWSYSRYTGNDYSRLGKFYYWGQGTQVTVSS | high polyreactivity |
| QVQLVESGGGLVQAGGSLRLSCAASGSTLVTNAMGWYRQAPGKERELVAAITFSGGTTYYADSVKGRFTISRDNAKNTFYLQMNSLKPEDTAVYYCAAEIWLEYVGYDYWGQGTQVTVSS | high polyreactivity |
| QVQLVESGGGLVQAGGSLRLSCAASGRIFLYYAMGWYRQAPGKERELVAAITRSGGTTYYADSVKGRFTISRDNAKNTVYLQMNSLKPEDTAVYYCAALGQYSRADYEYWGQGTQVTVSS | high polyreactivity |
| QVQRVESWGGLVQAGGSLRLSCAASGSTFEYNAMGWNRQAPGKEREFVAAISRTGSRTYYADSVKGRFTISRDNAKNTVYLQMNSLKPEDTAVYYCARVKSRLQVGYYYWGQGTQVTVSS | high polyreactivity |
| QVQRVESGGGLVQAGGSLRLSCAASGLIFVVYAMGWYRQAPGKERELVADISSGGRTSYADSVKGRFTISRDNAKNTVYLQMNSLKPEDTAVYYCNAYPVFNQYYGWRYDYWGQGTQVTVSS | low polyreactivity |
| QVQLVESGGGLVQAGGSLRLSCAASGRTFGINAMGWYRQAPGKERELVARIRKTVGSTYYADSVKGRFTISRDNAKNTVYLQMNSLKPEDTAVYYCAADLRYGYLYPYDSWGQGTQVTVSS | high polyreactivity |
| QVQLVESGGGLVQAGGSLRLSCSASGSIFYWYDMGWYRLAPGKERELVAAISSGGSTNYADSVKGRFTISRDNAKNTVYLQMISLKPEDTAVYYCNADVPLRYGPIYFRRLDYWGQGTQVTVSS | low polyreactivity |
| QVQLVESGGGLVQAGGSLRLSCAASGRTFTSNGMGWYRQAPGKERELVAAITSGTSTYYADSVKGRFTISRDNAKNPVYLQMNSLKPEDTAVYYCNKLVPRGSSYSTVIRGGGYWGQGTQVTVSS | high polyreactivity |
| QVQLVESGGGLVQAGGSLRLSCAASGNTFSGNAMGWYRQAPGKERELVAAISGSGASTYYADSVKGRFTISRDNAKNTVYLQMNSLKPEDTAVYYCAADKPGIFSRFDYWGQGTQVTVSS | low polyreactivity |
| QVQLVESGGGLVQAGGSLRLSCAASGFIFGYYGMGWYRQAPGKERELVAAITDGGSTTYADSVKGRFTISRDNAKNTVYLQMNSLKPEDTAVYYCNAEAGGFDYYGKTYRYGDYWGQGTQVTVSS | low polyreactivity |
| QVQLVESGGGLVQAGGSLRLSCAASGSIFLRYAMGWYRQAPGKERELVAAITTGGGSTYYADSVKGRFTISRDNAKNTVYLQMNRLKPEDPAVYYCAKRAQYHWRGRDDYSYYYWGQGTQVTVSS | low polyreactivity |
| QVQLVESGVGIVQAGGSLRLSCAASGSTFVSNAMGWYIPAPGKERELVAAISWTGGSTYYADSVKGRFTISRDNAKTTVYLQMNSLKPEDTAVYYCAAQLTDTYYQYDYWGQVTQVTVSS | low polyreactivity |

| Sequence | polyreactivity (PSR sort gate) |
| --- | --- |
| QVQLQESGGGLVHAAGILRLSCAACGNIFPSAVMGWYRQALGKEREFVATLNSGSNTYYADSVKGRFTIRRDNAKNTVYLQMNSLKLEDTGVYYCAAYFNLPAWHTYWGQGTQVTVSS | low polyreactivity |
| QVQLVESGGRLVQAGGSLRLSCAASGSIFVKYAMGWYRPAPGKERELVAAISGSGGSTYYADSVKGRFTISRDNAKTTVYLEMNSLKPEDTAVYYCAADDYFYSGRYGFEFWGHGTQVTVSS | low polyreactivity |
| QVQLVESGGGLVQAGGSLRLSCAASGITFQYNAMGWYRQAPGKERELVATIRRGGITKYADSVKGRFTISRDNAKNTVSLQMNSLKPEDSAVYYCAADFWYYQYPYGGGGYWGQGTQVTVSS | low polyreactivity |
| QVQLVESGGGLVQAGGSLRLSCAASGRILFRYGMGWYRQAPGKERELVARISWSGGNTHYADSVKGRFTISRDNAKNTVYLQMNSLKPEDTAVYYCNAYYTYWYPRYDYWGQGTQVTVSS | low polyreactivity |
| QVQLVESGGGLVQAGGSLRLSCAASGSTFRQYAMGWYRQAPGKERELVAAISSGGRTNYADSVKGRFTISRDNAKNTVYLQMNSLKPEDTAVYYCASDIRRRVPVRGYYYWGQGTQVTVSS | high polyreactivity |
| QVQLVESGGGLVQAGGSLRLNCAASGGIFAYNAMGWYRQAPGKEMELVAAITYGGGSTYYADSVKGRFTISRDNAKNTVYLQMNSLKPEDTAVYYCATRGHYHAFYYTYPRYDSWGQGTQVTVSS | low polyreactivity |
| QVQLVESGGGLVQAGGSLRLSCAASGFTFRYNAMGWYRQAPGKERELVATISWRGTSTYYADSVKGRFTISRDNAKNTVYLQMNSLKPEDTAVYYCATRSRDQYSVSYRLDYWGQGTQVTVSS | low polyreactivity |
| QVQLVESGGGLVQAGGSLRLSCAASGFTFNGYAMGWYRQAPGKERELVAAINWSGGRTYYADSVKGRFTISRDNAKNTVYLQMNSLKPEDTAVYYCNAVLYVTNSFRFDYWGQGTQVTVSS | high polyreactivity |
| QVQLVESGGGLVQAGGSLRISCAASGRTFRKYAMGWYRQAPGKERELVAAISWSGGSTYYANSVKGRFTISRDNAKNTVYLQMNSLKPEDTAVYYCAAVPVHTGSLYWGFTSGYDYWGQGTQVTVSS | low polyreactivity |
| QVQLVESGGGLVQAGGSLRLSCAASGRIFGIYAMGWYRQAPGKERELVATITDSDDSTYYADSVKGRFTISRDNAKNTVYLQMNSLKPEDTAVYYCATAFSYGGGAYDYWGQGTQVTVSS | low polyreactivity |
| HVHLVESGGGLVQAGGSLRLSCAASGRTFSRYAMGWYRQAPGKERELVAAITSGGSTNYADSVKGRFTISRDNAKNTVYLQKNSLKPEDTAVYYCAKRYFRSSRDGLGTTHPYDYWGQGTQVTVSS | high polyreactivity |
| QVQLVESGGGLVQAGGSLRLSCAASGIIFDGYAMGWYRQAPGKEREFVAAITSGGGSTSYADSVKGRFTISRDNAKNTVYLQMNSLKPEDTAVYYCAARSNRFYVRQRYAYWGQGTQLTVSS | high polyreactivity |
| QVQLVESGGGLVQAGGSLRLSCAASGITFDSYAMGWYRQSPGKEREWVDAISYSGGSTYYADSVKGRFTISRDNAKNTVNLQMNRLKPEDTAVYYFAAASDEDYDYWGQGTQVTVSS | low polyreactivity |
| QVQLVESGGGLVQAGGSLRLSCAASGFTFRVYAMGWYRQAPGKERELVAAITSGSSTTYADSVKGRFTISRDNAKNTVYLQLNSLKPEDTAVYYCNARRRGRVTGSYGYWGQGTQVTVSS | high polyreactivity |
| QVQLVESGGGLVQAGGSLRLSCAASGRIFKYYSMGWYRQAPWKERELVAAITRGGSTNYADSVKGRFTISRDNEKNTVYLQMNSLKPEDTAVYYCAVDTVRNHRMDYWGQGTQVTVSS | low polyreactivity |
| QVQLVESGGGLVQAGGSLRLICAASGRTFSGYAMGWYRPAPGKERELVAAINWSTGSTYYADSVKGRFTISRDNAQNTVYLQMNSLKPEDTAVYYCAAGYYYYGNGRIVQYEYWGQGTQVTVSS | high polyreactivity |
| QVQLVESGGGLVQAGGSLRLSCAASGSIIKSYAMGWYRQAPGKGRELVAAISSGGSTNYADSVKGRFTISRDNAKNTVYLQMNSLKPEDTAVYYCAARFRVDHRPYYYWGQGTQVTVSS | low polyreactivity |
| QVQLVESGGGLVQAGGSLRLSCAASGGILVGYALGWYRQAPGKERELVAAITSTGSTYYADSVKGRFTISRDNAKNTVYLQMNSLKPEDTAVYYCNAIGLHRYDYWGQGTQETVSS | low polyreactivity |
| QVQLVESGGGLVQAGGSLRLSCAASGITFQWYTMGWYRQAPGKERELVATISSGGSTNYADSVKGRFTISRDNAKNTVYLQMNSLKPEDTPVYYCAAYDYISSTYFLDEYWGQGTQVTVSS | low polyreactivity |
| QVQLVESGGGLVQARGSLRLSCAASGRIFKRYTMGWYTQAPGKKRELVATISSGDSTTYADSVKGRFTISRDNAKNTVYLQMNSLKQEDTAVYYCAAVWPGGSRRGDVVALNYWGQGTQVTVSS | high polyreactivity |
| QVQLVESGGGLVQAGGSLRLSCAASGSTFAKYAMGWYRQAPGKESELVASIRLSGGSTYYADSVKGRFTISRDNAKNTVYVQRNSLKPEDTAVYYCNKQFATFYYGFDYSYWGQGTQVTVSS | low polyreactivity |
